Where “and” joins values, the source holds several entries; their conditions need not be identical. Equal values may be shown once.
Experiments:
[1] = target: T1, HA-tagged human ILT7 on CT-550 cells (human, UniProt P59901 24-499); assay: flow cytometry on CT-550 cells expressing human ILT7, anti-human IgG DyLight 649 detection; table 'Mean Ec50 (nM)', n = 2
T1 construct: whole, on cells; CT-550 cells: CT-125 cells (2B4 murine T-cell hybridoma with mouse FcεRIγ and NFAT-GFP reporter) transduced with HA-tagged human ILT7; also called human ILT7-expressing cells; not shown: HA tag
Experimental: (§1) Binding of anti-ILT7 variants and isotype controls on human and cynomolgus ILT7 was assessed by flow cytometry analysis using CT-550 and cynoILT7 CT-125 cells respectively. CT-125 cells were used as control. Cells were resuspended in Blocking Buffer (PBS supplemented with 10% FBS) at a concentration of 5 million cells per mL and transferred into a round-bottom 96-well plates (BD Falcon™ Clear Microtest Plate, BD Biosciences) at 100 μL per well. Anti-ILT7 variants and control antibodies were added onto the cells for 30 min at 4° C. on a plate shaker. Cells were washed three times with PBS and resuspended in Blocking Buffer (100 μL/well). Human IgG binding on cell surface was detected using a secondary anti-human IgG antibody conjugated to DyLight 649 (1 in 1000 dilution). Cells were incubated in the dark for 30 min at 4° C. on a plate shaker. Cells were washed three times with PBS and surface fluorescence was acquired using LSRII Flow Cytometry System and FACSDiva Software (both from BD Biosciences).
In order to determine the binding EC50 of ILT70019, ILT70028, ILT70052, ILT70076, ILT70080, ILT70083, ILT70089, ILT70100, ILT70137, ILT70142 and ILT70144 on cells expressing human ILT7, the candidates were screened for binding on CT-550 cells by flow cytometry. ILT70080 (EC₅₀=0.28 nM), ILT70083 (EC₅₀=0.37 nM), ILT70137 (EC₅₀=0.41 nM), ILT70144, ILT70142, ILT70052, and ILT70100 bound to human ILT7-expressing cells. […] The anti-ILT7 antibodies 7C7 (7C7 is described above in Example 1) and SBI33 (SBI33 refers to the anti-ILT7 antibody ILT7#33 provided in U.S. Published Application No. 2009/0280128) were used as positive controls.

cynomolgus ILT7 [2] = target: T2, cynomolgus ILT7 (cynomolgus, UniProt P59901 24-499 (human entry)); assay: cell-based or functional assay
cynomolgus ILT7 [3] = target: T2, cynomolgus ILT7; assay: flow cytometry on cynomolgus ILT7-expressing cells, bottom panel, table 'Ec50 (pM)'
Experimental: as §1

[4] = target: T1, HA-tagged human ILT7 on CT-550 cells; assay: cell-based or functional assay
[5] = target: T1, HA-tagged human ILT7 on CT-550 cells; assay: flow cytometry on human ILT7-expressing cells, top panel, table 'Ec50 (pM)'
[6] = target: T1, HA-tagged human ILT7 on CT-550 cells; assay: flow cytometry on CT-550 cells (human ILT7), top panel, table 'Ec50 (pM)'
Experimental: as §1

cynomolgus ILT7 [7] = target: T2, cynomolgus ILT7; assay: flow cytometry on CynoILT7 CT-125 cells (cynomolgus ILT7), bottom panel, table 'Ec50 (pM)'
Experimental: as §1

T2 sequence (P59901 other isoform, or with tags, fused parts or gaps limits assumed): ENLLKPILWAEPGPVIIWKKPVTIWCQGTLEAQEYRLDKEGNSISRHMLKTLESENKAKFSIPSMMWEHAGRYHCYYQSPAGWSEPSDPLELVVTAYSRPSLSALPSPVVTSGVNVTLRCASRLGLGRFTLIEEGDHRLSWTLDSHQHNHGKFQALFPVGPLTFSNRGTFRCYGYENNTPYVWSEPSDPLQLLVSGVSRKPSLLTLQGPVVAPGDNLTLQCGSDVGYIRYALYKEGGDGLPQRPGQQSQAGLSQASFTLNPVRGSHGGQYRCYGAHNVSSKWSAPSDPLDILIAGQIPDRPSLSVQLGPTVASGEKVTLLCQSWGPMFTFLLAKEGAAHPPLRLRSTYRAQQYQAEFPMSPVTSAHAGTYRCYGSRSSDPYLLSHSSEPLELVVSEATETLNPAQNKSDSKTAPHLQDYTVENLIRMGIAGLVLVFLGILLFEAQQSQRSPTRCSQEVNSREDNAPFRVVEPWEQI
T1 sequence (P59901 24-499): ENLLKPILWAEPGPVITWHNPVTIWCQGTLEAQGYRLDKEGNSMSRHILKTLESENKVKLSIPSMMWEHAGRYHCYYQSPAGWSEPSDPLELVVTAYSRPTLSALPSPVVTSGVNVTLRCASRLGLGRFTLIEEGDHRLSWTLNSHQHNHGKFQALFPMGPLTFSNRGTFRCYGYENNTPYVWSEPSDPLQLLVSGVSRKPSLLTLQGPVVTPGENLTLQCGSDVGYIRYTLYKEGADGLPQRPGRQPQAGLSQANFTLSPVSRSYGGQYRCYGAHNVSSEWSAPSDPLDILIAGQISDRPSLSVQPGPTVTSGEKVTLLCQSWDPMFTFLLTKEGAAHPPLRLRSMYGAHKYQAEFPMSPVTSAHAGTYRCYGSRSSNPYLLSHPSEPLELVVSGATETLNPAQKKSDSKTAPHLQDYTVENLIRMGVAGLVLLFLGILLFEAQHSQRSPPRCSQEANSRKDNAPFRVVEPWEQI

Row | Binder | EC50 [1] [pM] | ADCC EC50 (cynomolgus ILT7 [2]) [pM] | EC50 (cynomolgus ILT7 [3]) [pM] | ADCC EC50 [4] | EC50 [5] [pM] | EC50 [6] [pM] | EC50 (cynomolgus ILT7 [7]) [pM]
1 | ILT70083.3 (antibody, V domains shown, Engineered (germlined) IgG1 variant of ILT70083) VH: EVQLLESGGGLVQPGGSLRLSCAASGFTFSSYAMSWVRQAPGKGLEWVSAISGSGGSTYYADSVKGWFTISRDNSKNTLYLQMNSLRAEDTAVYYCARRTYYYDSDGHSDVFDIWGRGTLVTVSS VL: QSVVTQPPSVSAAPGQKVTISCSGSASNIGSNFVSWYQQLPGTAPKLLIYDNDKRDLGIPDRFSGSKSGTSATLGITGLQTGDEADYYCGTWDTSLTVGVFGGGTKLTVL |  |  | 777 | > 89 pM | 596 |  | 
2 | ILT70083.1 (antibody, V domains shown) VH: EVQLLESGGGLVQPGGSLRLSCAASGFTFSSYAMSWVRQAPGKGLEWVSAISGSGGSTYYADSVKGWFTISRDNSKNTLYLQMNSLRAEDTAVYYCARRTYYYDSDGHSDVFDIWGRGTLVTVSS VL: QSVVTQPPSVSAAPGQKVTISCSGSASNIGSNFVSWYQQLPGTAPKLLIYDNDKRDLGIPDRFSASISSTSATLGITGLQTGDEADYYCGTWDTSLTVGVFGGGTKLTVL |  |  |  | > 89 pM |  |  | 
3 | ILT70083.2 (antibody, V domains shown, Engineered (germlined) IgG1 variant of ILT70083) VH: EVQLLESGGGLVQPGGSLRLSCAASGFTFSSYAMSWVRQAPGKGLEWVSAISGSGGSTYYADSVKGWFTISRDNSKNTLYLQMNSLRAEDTAVYYCARRTYYYDSDGHSDVFDIWGRGTLVTVSS VL: QSVLTQPPSVSAAPGQKVTISCSGSASNIGSNFVSWYQQLPGTAPKLLIYDNDKRDLGIPDRFSASISSTSATLGITGLQTGDEADYYCGTWDTSLTVGVFGGGTKLTVL |  |  | 15000 | > 89 pM | 863 |  | 
4 | ILT70083.5 (antibody, V domains shown, Engineered (germlined) IgG1 variant of ILT70083) VH: not shown VL: QSVVTQPPSVSAAPGQKVTISCSGSASNIGSNFVSWYQQLPGRAPKLLIYDNDKRDLGIPDRFSASISSTSAALAITGLQTEDEADYYCGTWDTSLTVGVFGGGTKLTVL |  |  | 2280 | > 89 pM | 500 |  | 
5 | ILT70083.4 (antibody, V domains shown, Engineered (germlined) IgG1 variant of ILT70083) VH: EVQLLESGGGLVQPGGSLRLSCAASGFTFSSYAMSWVRQAPGKGLEWVSAISGSGGSTYYADSVKGWFTISRDNSKNTLYLQMNSLRAEDTAVYYCARRTYYYDSDGHSDVFDIWGRGTLVTVSS VL: QSVLTQPPSVSAAPGQKVTISCSGSASNIGSNFVSWYQQLPGTAPKLLIYDNDKRDLGIPDRFSGSKSGTSATLGITGLQTGDEADYYCGTWDTSLTVGVFGGGTKLTVL |  |  | 620 | > 89 pM | 353 |  | 
6 | ILT70080.1 (antibody, V domains shown, Engineered (germlined) variant of ILT70080, tested as IgG1) VH: QVQLVQSGAEVKKPGSSVKVSCKASGDSFRNYAVSWVRQAPGQGLEWMGAMMPSFGTREHSQQFQGRVTLTADESTSTAYMELSSLRSEDTAVYYCAGSRDYNAYHFWTGPPDFWGRGTLVTVSS VL: SYVLTQPPSVSVAPGKTARITCGGDSVGSTSVHWYQQKPGQAPVMVMFYNSDRPSGIPERFSGSISGNTATLTISRVEAGDEADYYCQVWDTSSDHPEFGGGTKLTVL |  |  |  | < 14.1 pM and 8 pM and 10 pM |  | 201 | 463
7 | ILT70080.5 (antibody, V domains shown, Engineered (germlined) variant of ILT70080, tested as IgG1) VH: QVQLVQSGAEVKKPGSSVKVSCKASGDSFRNYAVSWVRQAPGQGLEWMGAMMPSFGTREHSQQFQGRVTLTADESTSTAYMELSSLRSEDTAVYYCAGSRDYNAYHFWTGPPDFWGRGTLVTVSS VL: SYVLTQPPSVSVAPGKTARITCGGDSVGSTSVHWYQQKPGQAPVMVMFYNSDRPSGIPERFSGSNSGNTATLTISRVEAGDEADYYCQVWDTSSDHPEFGGGTKLTVL |  |  |  | < 14.1 pM and 8.6 pM |  | 503 | 612
8 | ILT70080.3 (antibody, V domains shown, Engineered (germlined) variant of ILT70080, tested as IgG1) VH: QVQLVQSGAEVKAPGTSVKVSCKASGDSFRNYAVSWVRQAPGQGLEWMGAMMPSFGTREHSQQFQGRVTLSADESTSTAYMELSSLRSEDTAVYYCAGSRDYNAYHFWTGPPDFWGRGTLVTVSS VL: SYVLTQPPSVSVAPGKTARITCGGDSVGSTSVHWYQQKPGQAPVMVMFYNSDRPSGIPERFSGSISGNTATLTISRVEAGDEADYYCQVWDTSSDHPEFGGGTKLTVL |  |  |  | < 14.1 pM and 11 pM |  | 198 | 467
9 | ILT70080.7 (antibody, V domains shown, Engineered (germlined) variant of ILT70080, tested as IgG1) VH: QVQLVQSGAEVKKPGSSVKVSCKASGDSFRNYAVSWVRQAPGQGLEWMGAMMPSFGTREHSQQFQGRVTLTADESTSTAYMELSSLRSEDTAVYYCAGSRDYNAYHFWTGPPDFWGRGTLVTVSS VL: SYVLTQPPSVSVAPGKTARITCGGDSVGSTSVHWYQQKPGQAPVLVMFYNSDRPSGIPERFSGSNSGNTATLTISRVEAGDEADYYCQVWDTSSDHPEFGGGTKLTVL |  |  |  | < 14.1 pM and 7.8 pM |  | 229 | 405
10 | ILT70080.2 (antibody, V domains shown, Engineered (germlined) variant of ILT70080, tested as IgG1) VH: QVQLVQSGAEVKKPGSSVKVSCKASGDSFRNYAVSWVRQAPGQGLEWMGAMMPSFGTREHSQQFQGRVTLSADESTSTAYMELSSLRSEDTAVYYCAGSRDYNAYHFWTGPPDFWGRGTLVTVSS VL: SYVLTQPPSVSVAPGKTARITCGGDSVGSTSVHWYQQKPGQAPVMVMFYNSDRPSGIPERFSGSISGNTATLTISRVEAGDEADYYCQVWDTSSDHPEFGGGTKLTVL |  |  |  | < 14.1 pM |  | 225 | 503
11 | ILT70080.4 (antibody, V domains shown, Engineered (germlined) variant of ILT70080, tested as IgG1) VH: QVQLVQSGAEVKAPGTSVKVSCKASGDSFRNYAVSWVRQAPGQGLEWMGAMMPSFGTREHSQQFQGRVTLSADESTSTAYMELSSLRSEDTAVYYCAGSRDYNAYHFWTGPPDFWGRGTLVTVSS VL: SYELTQPPSVSVAPGKTAKISCGGDSVGSTSVHWYQQKPGQAPVMVMFYNSDRPSGIPERFSGSISGNTATLTISRVEAGDEADYYCQVWDTSSDHPEFGGGTKLTVL |  |  |  | < 14.1 pM and 11.9 pM |  | 337 | 597

More lines, now with the values ahead:

Row | EC50 [1] [pM] | ADCC EC50 (cynomolgus ILT7 [2]) [pM] | EC50 (cynomolgus ILT7 [3]) [pM] | ADCC EC50 [4] | EC50 [5] [pM] | EC50 [6] [pM] | EC50 (cynomolgus ILT7 [7]) [pM] | Binder
12 | 2030 | 58 |  |  |  |  |  | ILT70142 (antibody, V domains shown) VH: QVQLVQSGAEVKKPGASVKVSCKASGYTFTSYGISWVRQAPGQGLEWMGWISAYNGNTNYAQKLQGRVTMTRDTSISTAYMELSRLRSDDTAVYYCARNGLWGWDSDAFDIWGQGTTVTVSS VL: QSVLTQPPSVSAAPGQKVTISCSGSSSNIGNNYVSWYQQLPGTAPKLLIYDNNKRPSGIPDRFSGSKSGTSATLGITGLQTGDEADYYCGTWDSSLSAGVFGTGTQLTVL
13 |  |  | 711 | > 89 pM | 437 |  |  | ILT70083.8 (antibody, V domains shown, Engineered (germlined) IgG1 variant of ILT70083) VH: not shown VL: QSVVTQPPSVSAAPGQKVTISCSGSASNIGSNFVSWYQQLPGTAPKLLIYDNDKRDLGIPDRFSGSKSGTSATLGITGLQTGDEADYYCGTWDTSLTVGVFGGGTKLTVL
14 |  |  | 957 | > 89 pM | 540 |  |  | ILT70083.9 (antibody, V domains shown, Engineered (germlined) IgG1 variant of ILT70083) VH: not shown VL: QSVLTQPPSVSAAPGQKVTISCSGSASNIGSNFVSWYQQLPGTAPKLLIYDNDKRDLGIPDRFSGSKSGTSATLGITGLQTGDEADYYCGTWDTSLTVGVFGGGTKLTVL
15 |  |  | 1600 | > 89 pM | 516 |  |  | ILT70083.6 (antibody, V domains shown, Engineered (germlined) IgG1 variant of ILT70083) VH: not shown VL: QSVVTQPPSVSAAPGQKVTISCSGSASNIGSNFVSWYQQLPGTAPKLLIYDNDKRDLGIPDRFSASISSTSATLGITGLQTGDEADYYCGTWDTSLTVGVFGGGTKLTVL
16 |  |  | 9470 | > 89 pM | 905 |  |  | ILT70083.7 (antibody, V domains shown, Engineered (germlined) IgG1 variant of ILT70083) VH: not shown VL: QSVLTQPPSVSAAPGQKVTISCSGSASNIGSNFVSWYQQLPGTAPKLLIYDNDKRDLGIPDRFSASISSTSATLGITGLQTGDEADYYCGTWDTSLTVGVFGGGTKLTVL

From patent US20220144940A1 (VIELA BIO, published 2022)
